How the values were obtained:
[1] = target: T1, cyno PD-1^ECD-hFc protein (cyno monkey, UniProt B0LAJ3 25-167); assay: ELISA, coated cyno PD-1ECD-hFc; antibody 0.1 nM
T1 construct: Prepared by the method for Immunogen A; also called Cyno Monkey PD-1^ECD-hFc; cyno monkey PD-1-hFc; not shown: human IgG Fc fragment (hFc) and its junction to the ECD
Description: (§1) 100 uL of the diluted recombinant proteins were added to each well of 96-well plate. The plates were sealed with plastic film and incubated at 4° C. overnight. The plates were washed twice with wash buffer (PBS+0.01% (v/v) Tween20), and incubated with blocking buffer (PBS+0.01% (v/v) Tween20+1% (w/w) BSA) at room temperature for 2 hours. The blocking buffer was aspirated away, and 100 uL of purified anti-PD-1 antibodies were added to each well and incubated for 2 hours at 37° C. The plates were washed three times with wash buffer (PBS+0.01% (v/v) Tween20). HRP-conjugated secondary antibody (Sigma) was added to each well and incubated for 2 hours at 37° C. After the plates were washed three times with wash buffer, 100 uL TMB substrate was added to each well and incubated for 30 minutes at room temperature. 100 uL stop solution (0.1N HCl) was added to each well to stop the reaction. The absorbance at 450 nm was measured with an ELISA plate reader (384plus SpectraMax, Molecular Devices).

CD28 [2] = target: T2, CD28 (human, UniProt P10747 19-152); assay: ELISA, coated protein 1 ug/mL; antibody concentration not stated
Description: as §1
T2 sequence (P10747 19-152 limits assumed): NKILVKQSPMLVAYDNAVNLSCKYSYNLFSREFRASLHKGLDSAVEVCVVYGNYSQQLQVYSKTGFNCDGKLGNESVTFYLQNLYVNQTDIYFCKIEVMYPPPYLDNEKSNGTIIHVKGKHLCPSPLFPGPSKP

CTLA4 [3] = target: T3, CTLA4 (human, UniProt P16410 37-162, limits assumed); assay: as above
T3 sequence (looked up): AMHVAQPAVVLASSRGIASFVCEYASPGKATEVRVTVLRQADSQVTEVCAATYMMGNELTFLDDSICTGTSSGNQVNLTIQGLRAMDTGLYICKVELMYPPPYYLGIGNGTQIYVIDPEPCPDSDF
Description: as §1

ICOS [4] = target: T4, ICOS (human, UniProt Q9Y6W8 21-140, limits assumed); assay: as above
T4 sequence (looked up): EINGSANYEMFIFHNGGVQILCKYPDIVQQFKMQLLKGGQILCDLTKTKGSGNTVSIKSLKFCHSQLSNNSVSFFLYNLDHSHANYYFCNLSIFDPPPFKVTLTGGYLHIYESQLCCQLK
Description: as §1

CD28 [5] = target: T2, CD28; assay: ELISA on coated protein (Table 9)
Description: as §1

CTLA4 [6] = target: T3, CTLA4; assay: ELISA on coated protein (Table 9)
Description: as §1

ICOS [7] = target: T4, ICOS; assay: ELISA on coated protein (Table 9)
Description: as §1

B7-1 = target: T5, B7-1 (human, UniProt P33681 35-242); assay: ELISA on coated protein (Table 9)
T5 sequence (looked up): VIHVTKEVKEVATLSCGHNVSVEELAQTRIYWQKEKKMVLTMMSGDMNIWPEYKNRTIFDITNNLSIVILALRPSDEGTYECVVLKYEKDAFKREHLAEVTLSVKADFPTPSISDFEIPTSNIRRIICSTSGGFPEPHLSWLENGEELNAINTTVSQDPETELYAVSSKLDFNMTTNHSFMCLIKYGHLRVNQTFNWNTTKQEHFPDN
Description: as §1

[8] = target: T1, cyno PD-1^ECD-hFc protein; assay: ELISA, coated cyno PD-1ECD-hFc; antibody 0.01 nM
Description: as §1

[9] = target: T1, cyno PD-1^ECD-hFc protein; assay: ELISA, coated cyno PD-1ECD-hFc; antibody 1 nM
Description: as §1

[10] = target: T1, cyno PD-1^ECD-hFc protein; assay: ELISA, coated cyno PD-1ECD-hFc; antibody 100 nM
Description: as §1

[11] = target: T1, cyno PD-1^ECD-hFc protein; assay: ELISA, coated cyno PD-1ECD-hFc; antibody 10 nM
Description: as §1

B7.1 = target: T6, B7.1 (human, UniProt P33681 35-242); assay: ELISA, coated protein, antibody concentration not given
T6 sequence (looked up): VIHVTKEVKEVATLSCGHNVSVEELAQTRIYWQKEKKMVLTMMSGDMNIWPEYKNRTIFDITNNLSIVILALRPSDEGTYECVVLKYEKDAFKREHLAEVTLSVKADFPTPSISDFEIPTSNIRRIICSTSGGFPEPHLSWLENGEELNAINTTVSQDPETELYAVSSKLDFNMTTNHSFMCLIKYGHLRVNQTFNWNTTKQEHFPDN

ICOS [12] = target: T7, ICOS (human, UniProt Q9Y6W8 21-140, limits assumed); assay: as above
T7 sequence (looked up): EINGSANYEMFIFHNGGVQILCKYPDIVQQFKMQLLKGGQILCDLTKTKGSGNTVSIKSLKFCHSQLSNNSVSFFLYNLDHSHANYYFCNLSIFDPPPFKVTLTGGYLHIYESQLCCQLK

CD28 [13] = target: CD28 (human, UniProt P10747 19-152); assay: as above
Target sequence in this assay (P10747 19-152 limits assumed): as the sequence (P10747 19-152 limits assumed) above

CTLA4 [14] = target: T8, CTLA4 (human, UniProt P16410 37-162, limits assumed); assay: as above
T8 sequence (looked up): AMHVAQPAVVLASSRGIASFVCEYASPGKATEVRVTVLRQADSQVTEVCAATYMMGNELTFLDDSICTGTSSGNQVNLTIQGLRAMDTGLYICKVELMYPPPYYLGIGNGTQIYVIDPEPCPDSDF

[15] = target: T9, cyno monkey PD-1^ECD-hFc protein (cyno monkey, UniProt B0LAJ3 25-167); assay: ELISA, coated cyno PD-1ECD-hFc
T9 construct: also called cyno PD-1^ECD-hFc; not shown: human IgG Fc fragment (hFc) and its junction to the ECD
T9 sequence (B0LAJ3 entry or part of it limits assumed): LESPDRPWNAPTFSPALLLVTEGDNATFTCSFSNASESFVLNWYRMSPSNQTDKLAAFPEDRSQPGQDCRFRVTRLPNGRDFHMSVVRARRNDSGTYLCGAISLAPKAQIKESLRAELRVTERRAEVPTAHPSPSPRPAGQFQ

T1 sequence (B0LAJ3 entry or part of it limits assumed): as above

B1: chimeric anti-PD-1 antibody 223G6B5 (antibody, V domains shown)
VH: QVQLQESGPGLVKPSETLSLTCAVSGHSIRGSYFWGWIRQPPGRGLEWIGSIYHSGSTYTNPSLKSRATISVDTSKNQFSLKLNSVTAADTAVYYCARDLDIATTRDYWGQGTLVTVSS
VL: DIQLTQSPSFLSASVGDRVTIICRASQGINNYLAWYQQKPGKAPKLLIYAASTLQSGVPSRFSGSGSGTEFTLTISSLQPEDFATYYCQQLDSYPRTFGQGTKVEIKR
notes: Purified from hybridoma of Harbour H2L2 mice: human variable regions, rat constant regions
OD450 nm [1]: 1.28
OD450 nm (CD28 [2]): 0.166
OD450 nm (CTLA4 [3]): 0.106
OD450 nm (ICOS [4]): 0.14
binding result (CD28 [5]): no binding
binding result (CTLA4 [6]): no binding
binding result (ICOS [7]): no binding
binding result (B7-1): no binding
OD450 nm [8]: 0.342
OD450 nm [9]: 2.61
OD450 nm [10]: 2.7
OD450 nm [11]: 2.74

B2: fully human anti-PD-1 antibody 223G6B5 (antibody, human IgG4, V domains shown)
VH: QVQLQESGPGLVKPSETLSLTCAVSGHSIRGSYFWGWIRQPPGRGLEWIGSIYHSGSTYTNPSLKSRATISVDTSKNQFSLKLNSVTAADTAVYYCARDLDIATTRDYWGQGTLVTVSS
VL: DIQLTQSPSFLSASVGDRVTIICRASQGINNYLAWYQQKPGKAPKLLIYAASTLQSGVPSRFSGSGSGTEFTLTISSLQPEDFATYYCQQLDSYPRTFGQGTKVEIKR
OD450 nm (B7.1): 0.25 OD450
OD450 nm (ICOS [12]): 0.12 OD450
OD450 nm (CD28 [13]): 0.05 OD450
OD450 nm (CTLA4 [14]): 0.13 OD450
OD450 nm at 0 nM [15]: 0.31 OD450
OD450 nm at 0.001 nM [15]: 0.33 OD450
OD450 nm at 0.01 nM [15]: 0.83 OD450
OD450 nm at 0.1 nM [15]: 2.5 OD450
OD450 nm at 1 nM [15]: 2.88 OD450
OD450 nm at 100 nM [15]: 2.85 OD450

From patent US20180214548A1 (SHANGHAI YUNYI HEALTHCARE AND TECHNOLOGY, published 2018)
